The experiment deals with ヒトIL−18 (human interleukin-18, polypeptide having the amino acid sequence of SEQ ID NO 21) (human), Q14116. The experiment is described as follows: cell-based or functional assay. Conditions: scale: fold molar concentration against #125-2HmAb.

These results are taken from patent JP2000236884A.

B1: scFv peptide with His6 of Example 2-2, encoded by pEscFv#125-2H.HT (SEQ ID NO 10) (scFv)
scFv: EIQLQQSGPELVKPGASVKVSCKASGYSFTDYFIYWVKQSHGKSLEWIGDIDPYNGDTSYNQKFRDKATLTVDQSSTTAFMHLNSLTSEDSAVYFCARGLRFWGQGTLVTVSAGGGGGGSGGGGSGGGGSDIQMTQSPSSLSASLGERVSLTCRASQDIGSKLYWLQQEPDGTFKRLIYATSSLDSGVPKRFSGSRSGSDYSLTISSLESEDFVDYYCLQYASSPYTFGGGTKLAIKHHHHHH
The molecule B1 came in with a molar concentration needed for the same IL-18 neutralisation as #125-2HmAb (IFN-γ induction in KG-1 cells) of 2.
